This experiment addresses GP[change] (Zaire ebolavirus | , UniProt Q05320). The experiment is described as follows: BLI.

This passage reports Kd results from publication PMC8113551 (2021).

A word on the Kd: it is a measure of binding affinity in units of concentration. High values mean weaker binding, low ones tighter binding.

B1: ADI-15946 (antibody, V domains shown)
VH: EVQLVESGGGLVKPGGSLRLSCAASGFTFSNAWMSWVRQAPGKGLEWVGRIKSKTDGGTIDYAAPVKGRFTISRDDSKNTVYLQMTSLKTEDTAVYYCTTYTEDMRYFDWLLRGGETFDYWGQGTLVTVSS
VL: DIRLTQSPSSLSASVGDRVTITCRASHYISTYLNWYQQKPGKAPKLLIYAASNLQSGVPSRFSGSGFGTDFSLTISSLQPEDFATYHCQQSYSTPGRYTFGQGTKVEIK
Take B1: the equilibrium dissociation constant (Kd) is less than 1 pM.

B2: c4G7 (antibody, V domains shown)
VH: EVQLQESGPELEMPGASVKISCKASGSSFTGFSMNWVKQSNGKSLEWIGNIDTYYGGTTYNQKFKGKATLTVDKSSSTAYMQLKSLTSEDSAVYYCARSAYYGSTFAYWGQGTLVTVS
VL: DIQMTQSPASLSASVGETVTITCRASENIYSYLAWYQQKQGKSPQLLVYNAKTLIEGVPSRFSGSGSGTQFSLKINSLQPEDFGSYFCQHHFGTPFTFGSGTELEIK
Turning to B2, the Kd was less than 1 pM.

B3: c13C6 (antibody, V domains shown)
VH: DVKLLESGGGLVQPGGSLKLSCAASGFSLSTSGVGVGWFRQPSGKGLEWLALIWWDDDKYYNPSLKSQLSISKDFSRNQVFLKISNVDIADTATYYCARRDPFGYDNAMGYWGQGTSVTVS
VL: DIVMTQSPLSLSTSVGDRVSLTCKASQNVGTAVAWYQQKPGQSPKLLIYSASNRYTGVPDRFTGSGSGTDFTLTISNMQSEDLADYFCQQYSSYPLTFGAGTKLELR
As to B3, the Kd was less than 1 pM.

B4: mAb100 (antibody, V domains shown)
VH: QVQLQESGPGLVKPSDTLSLTCTVSGGSLSSFYWSWIRQPPGKGLEWIGYIYYSGSPNYSPSLESRVTMSVDTTRNQISLKLDSVTAADTAVYYCVRASRSYYWGSYRPTAFDSWGQGTLVTVSS
VL: SYELTQPLSVSVSPGQTAIFTCSGDNLGDKYVCWFQQRPGQSPMLLIYQDNKRPSGIPERFSGSNSGNTATLTISGTQSTDEADYYCQTWDSTVVFGGGTKLTVL
Turning to B4, the Kd is less than 1 pM.

B5: mAb114 (antibody, V domains shown)
VH: EVQLVESGGGLIQPGGSLRLSCAASGFALRMYDMHWVRQTIDKRLEWVSAVGPSGDTYYADSVKGRFAVSRENAKNSLSLQMNSLTAGDTAIYYCVRSDRGVAGLFDSWGQGILVTVSS
VL: DIQMTQSPSSLSASVGDRITITCRASQAFDNYVAWYQQRPGKVPKLLISAASALHAGVPSRFSGSGSGTHFTLTISSLQPEDVATYYCQNYNSAPLTFGGGTKVEIK
For B5, the Kd was less than 1 pM.

B6: c2G4 (antibody, V domains shown)
VH: EVQLQESGGGLMQPGGSMKLSCVASGFTFSNYWMNWVRQSPEKGLEWVAEIRLKSNNYATHYAESVKGRFTISRDDSKRSVYLQMNTLRAEDTGIYYCTRGNGNYRAMDYWGQGTSVTVS
VL: DIQMTQSPASLSVSVGETVSITCRASENIYSSLAWYQQKQGKSPQLLVYSATILADGVPSRFSGSGSGTQYSLKINSLQSEDFGTYYCQHFWGTPYTFGGGTKLEIK
B6 gave a Kd of less than 1 pM.

B7: ADI-15878 (antibody, V domains shown)
VH: QVQLVQSGVTLVQPGGSLRVSCAASGFTFSSYAMSWVRQAPGKGLEWVSAISGLGGSTYYADSVKGRFTISRDNSKNTLYLQMNSLRAEDTAVYYCAKDHRVWAAGYHFDYWGQGALVTVSS
VL: DIVLTQSPSTLSASVGDRVTITCRASQSISSWLAWYQQKPGEAPKLLISDASSLESGVPSRFSGSGSGTEFTLTISSLQPDDFATYYCQQYYSSPTFGGGTKVEIK
In turn, B7 showed a Kd of less than 1 pM.

B8: CA45 (antibody, V domains shown)
VH: QVQLQEWGEGLVKPSETLSLTCAVYGGSISGYYHWNWIRLPPGKGLEWIGNIDGNSASTNYNPSLKTRVTISKDTSKNQISLKVRSLTAADTAVYYCARDPGFTIFGVVITSWSGLDSWGQGAVVTVSS
VL: DIQMTQSPSSLSASVGDTVTITCRASQSISNNLAWYQQRPRRAPQLLIYAASNLASGVPSRFSGSGSGTDFTLTISSLQAEDFAAYYCQQHNTLPLTFGGGTKVEIK
Take B8: the Kd is less than 1 pM.

B9: KZ52 (antibody, V domains shown)
VH: EVQLLESGGGLVKPGGSLRLSCAASGFTLINYRMNWVRQAPGKGLEWVSSISSSSSYIHYADSVKGRFTISRDNAENSLYLQMNSLRAEDTAVYYCVREGPRATGYSMADVFDIWGQGTMVTVSS
VL: not shown
B9 yielded a Kd of less than 1 pM.
